Experimental data from US20220135701A1 (Genentech, published 2022).

T1: MuMER (E23-S496) (mouse, UniProt Q60805 23-496)
T1 construct: range 23-496; also called mouse MerTK extracellular domain
T1 sequence (looked up): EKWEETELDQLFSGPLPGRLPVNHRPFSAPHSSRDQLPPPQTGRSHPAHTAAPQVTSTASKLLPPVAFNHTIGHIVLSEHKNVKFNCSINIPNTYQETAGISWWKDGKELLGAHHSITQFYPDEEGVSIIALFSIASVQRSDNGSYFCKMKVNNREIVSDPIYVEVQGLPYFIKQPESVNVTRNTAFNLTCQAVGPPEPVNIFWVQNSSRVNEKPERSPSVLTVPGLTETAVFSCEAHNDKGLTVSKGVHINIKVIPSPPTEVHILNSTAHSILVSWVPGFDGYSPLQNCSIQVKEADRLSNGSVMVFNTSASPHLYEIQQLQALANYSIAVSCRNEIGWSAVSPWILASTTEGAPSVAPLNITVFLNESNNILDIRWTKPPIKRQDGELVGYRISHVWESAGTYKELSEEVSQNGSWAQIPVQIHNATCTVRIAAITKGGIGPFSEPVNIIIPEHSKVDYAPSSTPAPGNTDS

T2: MuMER.Ig1 (A70-G190) (mouse, UniProt Q60805 70-190)
T2 construct: range 70-190; also called mouse MerTK Ig-like 1 domain
T2 sequence (looked up): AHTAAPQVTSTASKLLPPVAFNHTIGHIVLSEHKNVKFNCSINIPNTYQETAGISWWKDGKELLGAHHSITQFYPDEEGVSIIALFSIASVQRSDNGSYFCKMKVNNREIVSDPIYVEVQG

T3: MuMER.Ig1&2 (A70-P279) (mouse, UniProt Q60805 70-279)
T3 construct: range 70-279; also called mouse MerTK Ig-like 1&2 domains
T3 sequence (looked up): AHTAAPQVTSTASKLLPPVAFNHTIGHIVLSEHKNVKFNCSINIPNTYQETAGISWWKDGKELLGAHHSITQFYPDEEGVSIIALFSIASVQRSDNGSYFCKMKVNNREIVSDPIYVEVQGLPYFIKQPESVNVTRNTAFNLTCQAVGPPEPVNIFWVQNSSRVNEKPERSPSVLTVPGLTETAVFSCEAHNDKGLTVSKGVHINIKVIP

T4: mouse MerTK (mouse, UniProt Q60805 23-496)
T4 construct: also called MuMER
T4 sequence (looked up): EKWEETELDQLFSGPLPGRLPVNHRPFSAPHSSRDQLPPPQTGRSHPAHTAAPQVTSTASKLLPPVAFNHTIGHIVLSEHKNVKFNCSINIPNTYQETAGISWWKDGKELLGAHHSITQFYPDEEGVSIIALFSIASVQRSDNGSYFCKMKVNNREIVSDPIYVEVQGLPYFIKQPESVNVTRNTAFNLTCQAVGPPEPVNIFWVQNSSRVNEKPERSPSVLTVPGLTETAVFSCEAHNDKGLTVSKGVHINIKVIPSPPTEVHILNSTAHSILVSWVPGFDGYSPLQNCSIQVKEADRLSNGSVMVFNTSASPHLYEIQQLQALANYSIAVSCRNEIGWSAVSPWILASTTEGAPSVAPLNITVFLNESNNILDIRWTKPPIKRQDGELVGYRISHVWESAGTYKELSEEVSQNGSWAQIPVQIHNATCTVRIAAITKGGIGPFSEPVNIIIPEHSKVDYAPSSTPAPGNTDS

T5: cynomolgus monkey MerTK (cynomolgus monkey, UniProt A0A2K5V1H9 32-505)
T5 construct: Soluble analyte in SPR; also called Cyno MerTK
T5 sequence: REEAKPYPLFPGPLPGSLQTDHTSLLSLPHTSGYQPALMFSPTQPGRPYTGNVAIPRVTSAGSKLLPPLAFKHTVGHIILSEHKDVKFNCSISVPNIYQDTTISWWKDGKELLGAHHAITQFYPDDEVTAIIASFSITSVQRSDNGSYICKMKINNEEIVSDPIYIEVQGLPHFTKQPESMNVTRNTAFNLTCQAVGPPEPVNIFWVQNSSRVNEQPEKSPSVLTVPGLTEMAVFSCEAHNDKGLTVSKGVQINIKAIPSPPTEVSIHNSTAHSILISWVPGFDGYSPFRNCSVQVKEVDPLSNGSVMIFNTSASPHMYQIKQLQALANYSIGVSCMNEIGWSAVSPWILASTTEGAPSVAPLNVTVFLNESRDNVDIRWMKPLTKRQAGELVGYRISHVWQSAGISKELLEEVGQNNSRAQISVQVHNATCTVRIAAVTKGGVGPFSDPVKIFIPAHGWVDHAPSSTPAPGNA

T6: human MerTK (human, UniProt Q12866 26-499)
T6 construct: also called HuMER
T6 sequence: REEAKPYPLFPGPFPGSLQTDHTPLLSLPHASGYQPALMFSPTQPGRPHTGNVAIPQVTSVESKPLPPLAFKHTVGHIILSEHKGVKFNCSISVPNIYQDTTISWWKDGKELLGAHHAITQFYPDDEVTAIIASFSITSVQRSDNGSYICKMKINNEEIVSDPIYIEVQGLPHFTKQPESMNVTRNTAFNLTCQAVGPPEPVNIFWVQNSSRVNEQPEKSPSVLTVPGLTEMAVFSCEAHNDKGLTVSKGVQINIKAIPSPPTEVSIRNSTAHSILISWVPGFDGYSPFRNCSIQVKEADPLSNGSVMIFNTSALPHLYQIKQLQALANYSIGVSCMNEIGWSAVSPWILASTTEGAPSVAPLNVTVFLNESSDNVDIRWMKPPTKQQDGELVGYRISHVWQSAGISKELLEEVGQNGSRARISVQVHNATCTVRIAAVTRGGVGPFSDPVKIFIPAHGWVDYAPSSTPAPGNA

T7: HuMER.Ig1 (G76-G195) (human, UniProt Q12866 76-195)
T7 construct: also called human MerTK Ig-like 1 domain
T7 sequence: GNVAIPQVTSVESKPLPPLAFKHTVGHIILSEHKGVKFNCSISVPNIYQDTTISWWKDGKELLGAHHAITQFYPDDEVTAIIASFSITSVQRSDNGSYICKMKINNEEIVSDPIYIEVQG

T8: HuMER (R26-A499) (human, UniProt Q12866 26-499)
T8 construct: Extracellular domain with both Ig-like and both fibronectin-like domains; also called human MerTK extracellular domain
T8 sequence: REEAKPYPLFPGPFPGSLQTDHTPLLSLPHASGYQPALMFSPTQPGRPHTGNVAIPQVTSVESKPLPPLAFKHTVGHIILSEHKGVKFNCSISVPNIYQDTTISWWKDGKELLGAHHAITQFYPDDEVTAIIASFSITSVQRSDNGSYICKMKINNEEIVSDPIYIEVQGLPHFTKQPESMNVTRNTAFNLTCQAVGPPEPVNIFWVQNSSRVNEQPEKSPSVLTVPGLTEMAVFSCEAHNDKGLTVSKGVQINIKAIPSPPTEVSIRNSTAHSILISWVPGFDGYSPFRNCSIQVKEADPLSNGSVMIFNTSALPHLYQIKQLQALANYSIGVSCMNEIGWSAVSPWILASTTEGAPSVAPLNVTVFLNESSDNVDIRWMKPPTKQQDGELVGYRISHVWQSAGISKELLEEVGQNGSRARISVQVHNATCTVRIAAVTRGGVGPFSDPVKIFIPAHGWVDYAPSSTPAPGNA

T9: HuMER.Ig1&2 (G76-P284) (human, UniProt Q12866 76-284)
T9 construct: also called human MerTK Ig-like 1&2 domains
T9 sequence: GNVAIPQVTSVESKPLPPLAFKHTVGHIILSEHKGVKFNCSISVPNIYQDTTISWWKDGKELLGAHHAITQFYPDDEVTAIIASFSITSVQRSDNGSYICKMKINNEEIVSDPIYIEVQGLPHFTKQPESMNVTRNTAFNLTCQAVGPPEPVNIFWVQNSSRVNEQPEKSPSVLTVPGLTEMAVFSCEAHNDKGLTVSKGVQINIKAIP


What was measured:
MuMER (E23-S496) = target: T1, MuMER (E23-S496); assay: SPR BIAcore T200, Ab captured, 25C
Experimental: (§1) Binding affinity determinations were obtained using Surface Plasmon Resonance (SRP) measurements from a BIAcore™-T200 instrument. Briefly, each rabbit antibody was captured to achieve approximately 100 RU (Response Units). Then, 3-fold serial dilutions of the various MerTK domains (0.4 nM to 100 nM) diluted in HBS-EP buffer (0.01M HEPES pH 7.4, 0.15M NaCl, 3 mM EDTA and 0.05% v/v surfactant P20) was injected into the BIAcore™-T200 instrument at 25° C. or 37° C. with a flow rate of 30 μl/min. Association rates (kₒₙ) and dissociation rates (koff) were calculated using a simple one-to-one Langmuir binding model (BIAcore T200 evaluation software version 2.0). The equilibrium dissociation constant (KD) was calculated as the ratio koff/kₒₙ.
(§2) Antibody epitope determination was assessed by BIAcore analysis for rabbit antibodies binding against both the human and mouse MerTK extracellular domain (HuMER R26-A499 and MuMER E23-S496), Ig1&2 domain, Ig1-only domain, and Ig2-only domain (TABLE 18). Human MerTK and its domains are shown in light gray, while mouse MerTK and its domains are shown in dark gray.

MuMER.Ig1 (A70-G190) = target: T2, MuMER.Ig1 (A70-G190); assay: SPR BIAcore T200, Ab captured, 25C
Experimental: as §1, §2

MuMER.Ig1&2 (A70-P279) = target: T3, MuMER.Ig1&2 (A70-P279); assay: SPR BIAcore T200, Ab captured, 25C
Experimental: as §1, §2

mouse MerTK = target: T4, mouse MerTK; assay: SPR BIAcore T200, Ab captured, 25C
Experimental: as §1, with “All binding affinity” for “Binding affinity”, “Resonance (SPR)” for “Resonance (SRP)”, “rabbit or humanized” for “rabbit”, “of MerTK from” for “of the”, “various species” for “various MerTK domains”

cynomolgus monkey MerTK [1] = target: T5, cynomolgus monkey MerTK; assay: SPR BIAcore T200, Ab captured, 37C
Experimental: as §1, with “All binding affinity” for “Binding affinity”, “Resonance (SPR)” for “Resonance (SRP)”, “rabbit or humanized” for “rabbit”, “of MerTK from” for “of the”, “various species” for “various MerTK domains”

human MerTK [2] = target: T6, human MerTK; assay: SPR BIAcore T200, Ab captured, 37C
Experimental: as §1, with “All binding affinity” for “Binding affinity”, “Resonance (SPR)” for “Resonance (SRP)”, “rabbit or humanized” for “rabbit”, “of MerTK from” for “of the”, “various species” for “various MerTK domains”

HuMER.Ig1 (G76-G195) = target: T7, HuMER.Ig1 (G76-G195); assay: SPR BIAcore T200, Ab captured, 25C
Experimental: as §1, §2

HuMER (R26-A499) = target: T8, HuMER (R26-A499); assay: SPR BIAcore T200, Ab captured, 25C
Experimental: as §1, §2

HuMER.Ig1&2 (G76-P284) = target: T9, HuMER.Ig1&2 (G76-P284); assay: SPR BIAcore T200, Ab captured, 25C
Experimental: as §1, §2

cynomolgus monkey MerTK [3] = target: T5, cynomolgus monkey MerTK; assay: SPR BIAcore T200, Ab captured, 25C
Experimental: as §1, with “All binding affinity” for “Binding affinity”, “Resonance (SPR)” for “Resonance (SRP)”, “rabbit or humanized” for “rabbit”, “of MerTK from” for “of the”, “various species” for “various MerTK domains”

human MerTK [4] = target: T6, human MerTK; assay: SPR BIAcore T200, Ab captured, 25C
Experimental: as §1, with “All binding affinity” for “Binding affinity”, “Resonance (SPR)” for “Resonance (SRP)”, “rabbit or humanized” for “rabbit”, “of MerTK from” for “of the”, “various species” for “various MerTK domains”

| Binder | Kd (MuMER (E23-S496)) [nM] | Kd (MuMER.Ig1 (A70-G190)) [nM] | Kd (MuMER.Ig1&2 (A70-P279)) [nM] | Kd (mouse MerTK) [nM] | Kd (cynomolgus monkey MerTK [1]) [nM] | Kd (human MerTK [2]) [nM] | Kd (HuMER.Ig1 (G76-G195)) [nM] | Kd (HuMER (R26-A499)) [nM] | Kd (HuMER.Ig1&2 (G76-P284)) [nM] | Kd (cynomolgus monkey MerTK [3]) [nM] | Kd (human MerTK [4]) [nM] |
| --- | --- | --- | --- | --- | --- | --- | --- | --- | --- | --- | --- |
| Rbt14C9 (antibody, V domains shown, Recombinant rabbit monoclonal antibody, Expi293, protein A purified) VH: QSVEESGGRLVTPGTPLTLTCTVSGIDLSANTMNWVRQAPGKGLEWIGIFTATGSTYYATWVNGRFTISKTSTTVDLKITSPTTEDTATYFCARSGSGSSSGAFNIWGPGTLVTVSL VL: DPVLTQTPASVSEPVGGTVTIKCQASQSISSSLAWYQQKPGQPPKLLIYAASILASEISSRFKGSRSGTEFTLTISDLECADAATYYCQCTSYGSLFLGPFGGGTEVVVK | 0.6 | 0.1 | 0.5 | 0.6 | – | – | – | – | – | – | – |
| Rbt13B4 (antibody, V domains shown, Recombinant rabbit monoclonal antibody, Expi293, protein A purified; also called Rb13B4) VH: QSVEESGGRLVTPGTPLTLTCTVSGFSLSSYAMGWVRQAPGKGLEWIGIINSYGNTYYANWAKGRFTISRTSTTVDLRMPSLTTEDTATYFCARDPGVSSNLWGPGTLVTVSS VL: DVVMTQTPASVSEPVGGTVTIKCQASQNIYSGLAWYQQKPGQPPKLLIYGASKLASGVSSRFKGSGSGTEFTLTISDLECADAATYYCQATYYSSNSVAFGGGTEVVVK | – | – | – | – | 5.9 | 4.9 | 0.3 | 2.9 | 8.8 | 1.8 | 2.9 |
| Rbt12H4 (antibody, V domains shown, Recombinant rabbit monoclonal antibody, Expi293, protein A purified) VH: QSVEESGGRLVTPGTPLTVTCTVSGFSLSVYGMGWVRQAPGKGLEYIGFINNVGNTYYASWAKGRFTISKTSTTVDLKITSPTTEDTATYFCAKGGGGDWGYFNIWGPGTLVTVSL VL: DVVMTQTPASVEAAVGGTVTIKCQASQSIGNALAWYQQKPGQRPKLLIYAASNLASGVPSRFAGSGSGTQFTLTISDLECADAATYYCQTYYAINRYGGAFGGGTEVVVK | 8.5 | 2.2 | 11 | 8.5 | – | – | 16.7 | 18 | 92 | 13.9 | 18 |
